Reference: patent US20210355235A1 (YALE UNIVERSITY, published 2021)

B1: anti-renalase monoclonal antibody 1F-26-1 (antibody, V domains shown)
VH: QSVKESEGGLFKPTDTLTLTCTVSGFSLSSYGVTWVRQAPGNGLEWIGLIGDRGTTFYASWAKSRSTITRNTNLNTVTLKMTRLTAADTATYFCARGSGYGARIWGPGTLVTVSS
VL: AQVLTQTPSPVSAAVGGTVTINCQSSQSVYKNNYLAWYQQKPGQPPKLLIYETSKLASGVPPRFSGSGSGTQFTLTISSVQCDDAATYYCQGGYSGVDFMAFGGGTEVVVKG
notes: Rabbit monoclonal IgG raised against peptide 1F; Biotinylated in the Biacore study; also called Bio-1F 26-1
B2: anti-renalase monoclonal antibody 1F-42-7 (antibody, V domains shown)
VH: QSVKESEGGLFKPTDTLTLTCTVSGFSLTTYGVTWVRQAPGNGLEWIGLIGDRGTTYYASWVNGRSTITRNTNLNTVTLKMTRLTAADTATYFCARGSGYGARIWGPGTLVTVAS
VL: AQVLTQTPSPMSAALGGTVTINCQSSQTVYNNNYLSWYQQKPGQPPKLLIYETSKLSSGVPPRFSGSGSGTQFTLTISSVQCDDAATYYCQGGYSGVDFMAFGGGTEVVVKG
notes: Rabbit monoclonal IgG raised against peptide 1F; Biotinylated in the Biacore study; also called Bio-1F 42-7
B3: anti-renalase monoclonal antibody 1D-37-10 (antibody, V domains shown)
VH: QSVEESGGRLVTPGGSLTLTCTVSGFSLSDYAIIWVRQAPGKGLEYIAIIGSSGDTFYATWAKGRFTISKTSTTVDLKMTSLTAADTATYFCAPRYAGTTDYHDAFDPWGPGTLVTVSS
VL: EVVMTQTPASMEAPMGGTVTIKCQASQNIYNYLSWYQQKPGQPPKLLVYKASTLTSGVPSRFKGSGSGTQFTLTISDLECADAATYYCQINYSIYNHYNIIFGGGTEVVVKG
notes: Rabbit monoclonal IgG raised against peptide 1D (RP-220); Biotinylated in the Biacore study; also called m37-RNLS; Bio-1D 37-10
B4: anti-renalase monoclonal antibody 1D-28-4 (antibody, V domains shown)
VH: QSVEESGGRLVTPGTPLTLTCTVSGFSLSSFAVGWVRQAPGKGLEYIGIISSVGITRYASWAAGRFTISKTSTTVDLKITSPTTEDTATYFCARYGYSGDVNRLDLWGQGTLVTVSS
VL: AQVLTQTASPVSAAVGGTVTINCQASQSVYDNNNLAWYQQKPGQPPKQLIYGASTLASGVSSRFKGSGSGTQFTLTISGVQCDDAATYYCLGEFSCSSADCFAFGGGTEVVVKG
notes: Rabbit monoclonal IgG raised against peptide 1D (RP-220); also called m28-RNLS; Bio-1D 28-4

Each binder was assayed against T1, human renalase-1 (Homo sapiens, UniProt Q5VYX0 18-342, limits assumed) (assay: SPR, Biacore T100; biotinylated antibody captured on streptavidin chip, renalase-1 in solution).
T1 construct: Whole entry named for renalase-1 (Glu at position 37); also called R1; HuRenalase-1
T1 sequence (Q5VYX0 18-342 limits assumed): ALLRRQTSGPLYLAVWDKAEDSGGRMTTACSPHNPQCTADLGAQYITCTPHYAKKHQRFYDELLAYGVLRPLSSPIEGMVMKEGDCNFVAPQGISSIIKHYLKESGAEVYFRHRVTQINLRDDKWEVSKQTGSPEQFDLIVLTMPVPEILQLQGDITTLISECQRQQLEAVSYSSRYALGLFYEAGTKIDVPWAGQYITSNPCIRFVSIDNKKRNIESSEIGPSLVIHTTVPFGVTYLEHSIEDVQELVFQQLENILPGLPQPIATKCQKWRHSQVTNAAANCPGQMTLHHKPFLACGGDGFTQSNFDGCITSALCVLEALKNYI
Protocol: Binding studies were performed using a Biacore T100. Binding studies were performed at 25° C. using 25 mM Tris pH 8, 150 mM NaCl, 1 mM EDTA, 10% glycerol, 0.005% Tween-20 and 0.1 mg/mL BSA as the running buffer. The biotinylated antibodies were captured on individual streptavidin sensor chip flow cells as shown below. Because the study took two sensor chips, the analysis of two of the mAbs on the second sensor chip was repeated to gather more data. Renalase-1 was tested at 50 nM as the highest concentration in a three-fold dilution series. Each of 5 concentrations was tested in duplicate. Bound complexes were regenerated with a short pulse of 1/1000 phosphoric acid.
For B1, the Kd was 2.25 nM, the koff was 0.000102 s⁻¹ and the kon was 45300 M⁻¹ s⁻¹. In the case of B2, the Kd is reported as 2.41 nM, the koff is reported as 9.47e-05 s⁻¹ and the kon is reported as 39300 M⁻¹ s⁻¹. B3 gave a Kd of 2.67 nM, a koff of 4.67e-05 s⁻¹ and a kon of 17500 M⁻¹ s⁻¹. B4 showed a Kd of 0.316 nM, a koff of 2.04e-05 s⁻¹ and a kon of 64700 M⁻¹ s⁻¹.
